# Data from the DeepSol protein solubility set.
# Test: soluble on expression in E. coli; label from the status in PepcDB or PDB records
row,Sequence,soluble on expression in E. coli
1,MSLEWTKLTGTLKPDKDVKRGMLAIQPLGKGQFQLDVVSLFPSDTWDNGKSVFRADIMQNLKEYAPDFIRFPGGCIVHGVNEATMYHWKKTIGPIENRPGQWSKWAPYYRTDGIGYHEFYELCEYLGADAMYVIPTGMICTGWVKQSSPWNFIQPDVDLDAYIQDALDAIEYAIGPETSKWGALRVKNGHPKPFPLKYIEIGNEDFGPVYWERYEKIYQALHRQYPDLIYIANSIIGKENDDKRIDIAKFVNPKNVKVFDEHHYQPVEWACKQHYRFDNYERGIADLFVGELGIDGKYPYNLLASGAVRMSLERNGDLNPLLAERPVMRHWDFSEHRQLHSMLINGVDCSIRTSFYYLSKMFRDHTFDVCLDAGIQGMKGLQNVFVTMGYDSESKEYILKLINLRKQEVVLQTAVKGFGKKIQAQKITLSLEPGKNNTPEMPDAVKPVQSTVTLDLNKDLQLEASSMIVYRFKEGHHHHHH,not soluble
2,MSLTAYMDHKNLANEVIDDARAREITDGVHRVLDRIAAAEEQAGREAGSVRLLAATKTRDIGEIMAAIDAGVRMIGENRPQEVTAKAEGLARRCAERGFSLGVAGAAPDAAAEHIPFHLIGQLQSNKIGKVLPVVDTIESVDSIDLAEKISRRAVARGITVGVLLEVNESGEESKSGCDPAHAIRIAQKIGTLDGIELQGLMTIGAHVHDETVIRRGFSHLRKTRDLILASGEPGTDRCRELSMGMTGDMELAIAEGSTIVRVGTAIFGERAFIEGHHHHHH,soluble
3,GSSQISDMTRDGLANKALAVARTLADSPEIRQGLQKKPQESGIQAIAEAVRKRNDLLFIVVTDMQSLRYSHPEAQRIGQPFKGDDILKALNGEENVAINRGFLAQALRVFTPIYDENHKQIGVVAIGLELSRVTQQINDSRW,soluble
4,MTCDDWNSYIQVNIYGKTIEGLQQQGVVLESLLNNVGCSKVWIMEGSVCTNPRPESSTHSEESTIEPVVPLSTTLATNKLPRFSTPAIGHSNNNSSKNFTLNLAEKLSEILSDDDKTDEFLENSHQSETSKDDVIKDLLEEMVQTVANSNKPPILLSTTLANVGVPRFSTPIKPQHALNRDFTMNMTEMISEIDSNYEGYELFDDSSNDCTTLTPNCQEVESSFYRALSEAASSIVPYQEGKRRSSRRLSTLSSLKETVKVEPAVSKLTKRRRLTPVECSSETMIPHSQPIPLDTCSDQPIFPNSTHNAIQSDGFSYEQPICEFGDSQLFLSAKSLCTEPNSSIAEDVKPVLTVSDSDITASNRNNIDDHNRVIELSTEV,not soluble
5,MSLGSTTPISIFELVTRLENDSQVANDTKHLFFSGENIGYSEMIGRRPNMEDAIVIRENFREKLHIAAVFDGHSGHSVARSCAASLPDLLRNDETINSDAIKKHLDHINHVLLSSNDLAGSTMQFAIIDMNNNHLTIMQLGDSRSVVYKNDGRVTFYTQEMRPERRSELARLREDRIRLKRLRTGGMLACSTSIGDFQVKGISHEPEVIEMDISDDDRWIVIACDGLWDDVNNESAAKILLDSESPHVAATLLRDLAFQRGSEDNISVIVVDLDLLRNEGHHHHHH,soluble
6,MAKAGREGPRDSVWLSGEGRRGGRRGGQPSGLDRDRITGVTVRLLDTEGLTGFSMRRLAAELNVTAMSVYWYVDTKDQLLELALDAVFGELRHPDPDAGLDWREELRALARENRALLVRHPWSSRLVGTYLNIGPHSLAFSRAVQNVVRRSGLPAHRLTGAISAVFQFVYGYGTIEGRFLARVADTGLSPEEYFQDSMTAVTEVPDTAGVIEDAQDIMAARGGDTVAEMLDRDFEFALDLLVAGIDAMVEQA,soluble
7,VKIRLHTLLAVLTAAPLLLAAAGCGSKPPSGSPETGAGAGTVATTPASSPVTLAETGSTLLYPLFNLWGPAFHERYPNVTITAQGTGSGAGIAQAAAGTVNIGASDAYLSEGDMAAHKGLMNIALAISAQQVNYNLPGVSEHLKLNGKVLAAMYQGTIKTWDDPQIAALNPGVNLPGTAVVPLHRSDGSGDTFLFTQYLSKQDPEGWGKSPGFGTTVDFPAVPGALGENGNGGMVTGCAETPGCVAYIGISFLDQASQRGLGEAQLGNSSGNFLLPDAQSIQAAAAGFASKTPANQAISMIDGPAPDGYPIINYEYAIVNNRQKDAATAQTLQAFLHWAITDGNKASFLDQVHFQPLPPAVVKLSDALIATISS,soluble
8,MTEHVITSKCESPLLQAFVDNYLLLVKIAARIVGCRSRAEDVVQDAFFRLRSAPQATLTFKAQLSYLFQIVRNLAIDHYRKQALEQKYTGPEAEGLNVVIQGASPEISHINFTSLEKIADALSELPPRTRYAFEMYRLHGVPQKDIAKELGVSPTLVNFMIRDALIHCRKVNGTTAEA,not soluble
9,MSFEEKTFKWLMNQKFYHGYLPREDLPYVLKKKGDFIFRVTERTVGKEQKKDIVLSIAWPTESVAMIDTKDIKNYLIERSANSVWLDLKISFHSIDALYNHYRKNELVHPNLRIKLGRPICLFFWEFKHSQINLIKKVGKGAYGEVFKGTVTRGNKTFNGAIKAMRKDLDAGNEKMKEVMAEARLMRSLNHPNIVRCRGIAVLEQPVYIVIEFINGGGLDSYLKKNSQTLTMDQKNRMAISAAWGIEFMHSHDIIHRDIAARNCLYDNKNLVKLSDFGLSRKGSVYRMKKAMKMPTKWLAPESLTTFTFSGASDVYTFGVLLYEIYTCQEPYLAVKAGEAKRYILSGAFPNFTKQAPPELNEIVKKSIYQLDPAKRDTMKVIVKKLETWLDVELVLDENEKPDIDPESNRFNGNMPIRVDSSTKKMRNDTVCIPPPETATVALPNSLPPITVSARSKNSRKSTLKRKKKKTSKDSSMTTTTTNTNESEPPADGQVISSETMSVANKMVSDAKGGSPEMLTPSLEELKPSSQENETFLNEKNSTAKN,not soluble
10,MLERIKSGVIGLDEILGGGFIKNTVNAVVGGMGCGKTIFCMNYLLEGLENGEKCMYASPDLDVDEFLRLAESMHWDFSKYIDNGQLNIMTVVAEDAASFIKMAFEYDRVAVDALSPLVIDVEAGSRKEIGWLLKNLKSKGTALITVEEPLRQNADLLLLLADSVISLRYTGYGGPFSRTLRVLKHRMSWHGDGVYPFYIIEGAGIVIDEKRGEGFELEEEMNLPERAKEKIAEMCKKGTLTLEDISKIKRRIP,not soluble
11,RSAEALFEKAVTPSDVGKLNRLVIPKHHAEKHFPLPSSNVSVKGVLLNFEDVNGKVWRFRYSYWNSSQSYVLTKGWSRFVKEKNLRAGDVVSFSRSNGQDQQLYIGWKSRSGSDLDA,soluble
12,KLEFREVDKDALVNDEKLLREFFGIYVLAHYRNRPSDLAILLDMPNHLPFIVTVNGKPVCSLHIAVEGNLDDETIEKIKEGYKPKGQIIPDLMLKHYWDFEFPKLVGARVVRIATHPSVMDMGIGSFALAKIVEWAYGRDMDWVGSGFGVSPELLRFWAKNHFTPVHITPQRNE,not soluble
13,MGSDKIHHHHHHMATPADKLAESLAVLKTLRDQGRKALRSEDMGRTHRERLMRNGFIKEVMKGWYIPSRPDEPAGESTSWYASFWVFCASYLESRFGDEWCVSPEQSIHLHTGNWSVPKQLLIRSPKGGNKPTGLLHGTSILDVRLELPPASDTEIKEGMRIYNLPAALVGCSQTQFSAHPTEMRTALTMMQDASELLGRLLAGGHSKIAGWLAGACRSIGRKQIADDILGAMRAAGYTVNENNPFKDQAQIIFSPRETSPYVNRMRMNWASMREDVLHSFPAAPGLPADSAKYLKQVEAVYVNDAYNSLSIEGYKVSAALIEKVRSGNWNPDSNKDDQDHRNALAARGYWQAFQKVRESIGKVLSQENAGTVAESDHAQWYRELFGPSVTAGILKAADLAGYRNSPVYIRRSMHTPPGKEAVRELMPVLFELLQQENEAAVRVVLGHFMFVYIHPYIDGNGRIGRFLMNLMSASGGYSWIVIPLEQRNDYMAALESASVEGDIKPFSTLLANLVSTG,not soluble
14,SSWAIHYIGKSVEQLTGYSKMDFITRKLTWSDLICPEDIPALNKVVQKATKNRTPYQVEYRIKKADGSTVFIQEQAHPVNDDKGNLAYVDGVFLDV,not soluble
15,MPKKVVPEEARRRRRPTRQGAVLSEGLIVRTALRMLREHGTGGLTARRLGAALGADPSTLYRYFAGMDDLARAVGNELMGQALDGWTAQGDWRADLRSLGLALHSSYLAHPQAAVLTASRVSGRPREIAVDEAILGLLRGAGLTDRAAVRFYHAFIDLALAFAALDAGSLALPEEARRSDEDMWGTTYARLPAETHPNIAATAERLAARMPHSAYPVVLDTLLDGIAAELTGTAPEM,not soluble
